22 molecules from patent US20240279281A1, “Peptide Inhibitors of Interleukin-23 Receptor” (Janssen Pharmaceutica NV, priority 2023, published 2024) can be followed below.

This assay deals with T1, interleukin-23 receptor (IL-23R), Q5VWK5.
T1 chain: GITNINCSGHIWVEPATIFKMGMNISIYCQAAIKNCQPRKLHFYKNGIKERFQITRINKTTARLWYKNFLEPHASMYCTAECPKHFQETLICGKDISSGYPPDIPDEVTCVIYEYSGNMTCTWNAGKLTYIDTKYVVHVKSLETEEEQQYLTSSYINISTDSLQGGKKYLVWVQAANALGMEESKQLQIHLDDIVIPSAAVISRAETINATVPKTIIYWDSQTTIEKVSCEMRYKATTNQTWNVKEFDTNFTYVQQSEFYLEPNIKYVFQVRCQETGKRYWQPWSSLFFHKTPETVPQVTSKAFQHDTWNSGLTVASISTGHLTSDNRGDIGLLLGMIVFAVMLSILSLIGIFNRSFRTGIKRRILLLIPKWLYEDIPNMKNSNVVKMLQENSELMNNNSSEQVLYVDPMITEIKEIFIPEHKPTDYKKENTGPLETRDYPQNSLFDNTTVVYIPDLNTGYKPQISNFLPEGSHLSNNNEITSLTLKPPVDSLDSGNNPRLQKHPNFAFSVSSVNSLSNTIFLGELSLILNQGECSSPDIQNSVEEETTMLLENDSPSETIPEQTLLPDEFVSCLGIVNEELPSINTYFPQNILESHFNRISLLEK
Nature of the assay: cell-based or functional assay.

Starred links: 1 amine or outer side, 2 acyl side, 3 side chain; linkers in the order of their positions; H or OH if unused. Positions of bridges follow the written chain, without caps; N, C: chain ends. Non-standard residues stand in square brackets, D forms with d. No end group written: not given here. X1 = 3‑(7-(3-acetamidophenyl)-1H-indol-3-yl)‑2‑aminopropanoic acid, CC(=O)Nc1cccc(-c2cccc3c(CC(N[*:1])C(=O)[*:2])c[nH]c23)c1; X3 = 4‑(2-(4-(2-amino-2-carboxyethyl)phenoxy)ethyl)‑4‑methylmorpholin‑4‑ium, C[N+]1(CCOc2ccc(CC(N[*:1])C(=O)[*:2])cc2)CCOCC1; Trp(7-(3-AcNH-Ph)) = CC(=O)Nc1cccc(-c2cccc3c(C[C@H](N)C(=O)O)c[nH]c23)c1; 2Nal(6-OH) = N[C@@H](Cc1ccc2cc(O)ccc2c1)C(=O)O; Trp(7-Me) = Cc1cccc2c(C[C@H](N)C(=O)O)c[nH]c12; d(hLys(Me3)) = C[N+](C)(C)CCCCC[C@@H](N)C(=O)O; AEF = NCCOc1ccc(C[C@H](N)C(=O)O)cc1; 3Pal = N[C@@H](Cc1cccnc1)C(=O)O; d(hLys) = NCCCCC[C@@H](N)C(=O)O; Pen = CC(C)(S)[C@H](N)C(=O)O; Thp = NC1(C(=O)O)CCOCC1; Sar = CNCC(=O)O

B1: SEQ ID NO: 148 (peptide)
peptide: R[Pen]ET[Trp(7-Me)]K(Ac)[Pen][2‑amino‑3‑(4-(2-aminoethoxy)phenyl)propanoic acid][2‑amino‑3‑(6-hydroxynaphthalen-2-yl)propanoic acid][Thp]EN[3Pal][Sar]K
modifications: disulfide 2-7 (inferred); ends not checked; also: Lys15: lipidated lysine, lipid not given here
Molecule B1 had a PBMC pSTAT3 IC50 below 0.1 nM.

B2: SEQ ID NO: 142 (peptide)
peptide: R[Pen]ET[Trp(7-Me)]K(Ac)[Pen][2‑amino‑3‑(4-(2-aminoethoxy)phenyl)propanoic acid][2‑amino‑3‑(6-hydroxynaphthalen-2-yl)propanoic acid][Thp]EN[3Pal][Sar]K
modifications: disulfide 2-7 (inferred); ends not checked; also: Lys15: lipidated lysine, lipid not given here
Turning to B2, the PBMC pSTAT3 IC50 is below 0.1 nM.

B3: SEQ ID NO: 96 (peptide)
peptide: [Pen]NT[Trp(7-Me)]K[Pen][AEF][2Nal(6-OH)][Thp]K(Ac)N[3Pal][Sar]
modifications: disulfide 1-6 (inferred); not fully specified (residue 5); ends not checked; also: K5: lipidated lysine, lipid not given here
In turn, B3 registered a PBMC pSTAT3 IC50 below 0.1 nM.

B4: SEQ ID NO: 140 (peptide)
peptide: R[Pen]ET[Trp(7-Me)]K[Pen][AEF][2Nal(6-OH)][Thp]EN[3Pal][Sar]
modifications: disulfide 2-7 (inferred); ends not checked; also: K6: lipidated lysine, lipid not given here
The molecule B4 displayed a PBMC pSTAT3 IC50 below 1 nM.

B5: SEQ ID NO: 126 (peptide)
peptide: K[Pen]NT[Trp(7-Me)]K(Ac)[Pen][AEF][2Nal(6-OH)][Thp]EN[3Pal][Sar]
modifications: disulfide 2-7 (inferred); ends not checked; also: K1: lipidated lysine, lipid not given here
Molecule B5 yielded a PBMC pSTAT3 IC50 below 1 nM.

B6: SEQ ID NO: 153 (peptide)
peptide: [Pen]NT[X1]K(Ac)[Pen][2‑amino‑3‑(4-(2-aminoethoxy)phenyl)propanoic acid][2‑amino‑3‑(6-hydroxynaphthalen-2-yl)propanoic acid][Thp]KN[3Pal][Sar]
modifications: disulfide 1-6 (inferred); ends not checked; also: K10: lipidated lysine, lipid not given here
Molecule B6 came in with a PBMC pSTAT3 IC50 below 0.1 nM.

B7: SEQ ID NO: 147 (peptide)
peptide: R[Pen]ET[Trp(7-Me)]K(Ac)[Pen][2‑amino‑3‑(4-(2-aminoethoxy)phenyl)propanoic acid][2‑amino‑3‑(6-hydroxynaphthalen-2-yl)propanoic acid][Thp]EN[3Pal][Sar]K
modifications: disulfide 2-7 (inferred); ends not checked; also: Lys15: lipidated lysine, lipid not given here
Take B7: the PBMC pSTAT3 IC50 is below 1 nM.
As for K[Pen]ET[Trp(7-Me)]K(Ac)[Pen][AEF][2Nal(6-OH)][Thp]K(Ac)N[3Pal][Sar] (disulfide 2-7 (inferred); ends not checked) [SEQ ID NO: 134], the PBMC pSTAT3 IC50 was below 1 nM.
Still for that read-out and setting: next, R[Pen]NT[Trp(7-(3-AcNH-Ph))]K(Ac)[Pen][X3][2Nal(6-OH)][Thp]EN[Thp] (disulfide 2-7 (inferred); ends not checked) [SEQ ID NO: 110]: below 1 nM.
[Pen]NT[Trp(7-Me)]K(Ac)[Pen][5‑(4-(2-amino-2-carboxyethyl)phenoxy)‑N,N,N‑trimethylpentan‑1‑aminium][2Nal(6-OH)][Thp]EN[3Pal][Sar] (not fully specified (bridges); ends and bridges not checked) [SEQ ID NO: 79] displayed an IL23R Reporter Assay IC50 below 10 nM and a PBMC pSTAT3 IC50 below 10 pM.

B8: SEQ ID NO: 131 (peptide)
peptide: [Pen]NT[Trp(7-Me)]K[Pen][AEF][2Nal(6-OH)][Thp]K(Ac)N[3Pal][Sar]
modifications: disulfide 1-6 (inferred); ends not checked; also: K5: lipidated lysine, lipid not given here
As for B8, the PBMC pSTAT3 IC50 is below 1 nM.

B9: SEQ ID NO: 150 (peptide)
peptide: R[Pen]KT[X1]K(Ac)[Pen][2‑amino‑3‑(4-(2-aminoethoxy)phenyl)propanoic acid][2‑amino‑3‑(6-hydroxynaphthalen-2-yl)propanoic acid][Thp]EN[3Pal][Sar]
modifications: disulfide 2-7 (inferred); ends not checked; also: Lys3: lipidated lysine, lipid not given here
On to B9, for which the PBMC pSTAT3 IC50 was below 1 nM.

B10: SEQ ID NO: 118 (peptide)
peptide: K[Pen]NT[Trp(7-Me)]K(Ac)[Pen][AEF][2Nal(6-OH)][Thp]K(Ac)N[3Pal][Sar]
modifications: disulfide 2-7 (inferred); ends not checked; also: K1: lipidated lysine, lipid not given here
B10: the PBMC pSTAT3 IC50 is below 1 nM.
Still for that read-out and setting: as for [d(hLys(Me3))][Pen]NT[Trp(7-Me)]K(Ac)[Pen][2‑amino‑3‑(4-(2-aminoethoxy)phenyl)propanoic acid][2‑amino‑3‑(6-hydroxynaphthalen-2-yl)propanoic acid][Thp]EN[3Pal][Sar] (disulfide 2-7 (inferred); ends not checked) [SEQ ID NO: 144], the figure is below 1 nM.

B11: SEQ ID NO: 128 (peptide)
peptide: [Pen]NT[Trp(7-Me)]K(Ac)[Pen][AEF][2Nal(6-OH)][Thp]KN[3Pal][Sar]
modifications: disulfide 1-6 (inferred); ends not checked; also: K10: lipidated lysine, lipid not given here
B11 showed a PBMC pSTAT3 IC50 below 1 nM.
The same measure, in the same setting: next, R[Pen]ET[Trp(7-Me)]K(Ac)[Pen][AEF][2Nal(6-OH)][Thp]EN[3Pal][Sar] (disulfide 2-7 (inferred); ends not checked) [SEQ ID NO: 141]: below 0.1 nM.

B12: SEQ ID NO: 116 (peptide)
peptide: R[Pen]NT[Trp(7-Me)]K(Ac)[Pen][AEF][2Nal(6-OH)][Thp]EN[3Pal][Sar]K
modifications: disulfide 2-7 (inferred); ends not checked; also: K15: lipidated lysine, lipid not given here
B12 had a PBMC pSTAT3 IC50 below 1 nM.

B13: SEQ ID NO: 119 (peptide)
peptide: [d(hLys)](Me3)[Pen]NT[Trp(7-Me)]K[Pen][AEF][2Nal(6-OH)][Thp]K(Ac)N[3Pal][Sar]
modifications: disulfide 2-7 (inferred); ends not checked; also: K6: lipidated lysine, lipid not given here
On to B13, for which the PBMC pSTAT3 IC50 was below 1 nM.

B14: SEQ ID NO: 139 (peptide)
peptide: [Pen]NT[Trp(7-Me)]K(Ac)[Pen][AEF][2Nal(6-OH)][Thp]K(Ac)N[3Pal][Sar]K
modifications: disulfide 1-6 (inferred); ends not checked; also: K14: lipidated lysine, lipid not given here
In the case of B14, the PBMC pSTAT3 IC50 is below 0.1 nM.

B15: SEQ ID NO: 129 (peptide)
peptide: [Pen]NT[Trp(7-Me)]K(Ac)[Pen][AEF][2Nal(6-OH)][Thp]KN[3Pal][Sar]
modifications: disulfide 1-6 (inferred); ends not checked; also: K10: lipidated lysine, lipid not given here
Molecule B15 gave a PBMC pSTAT3 IC50 below 1 nM.
Same read-out and setting: next, R[Pen]NT[X1]K(Ac)[Pen][2‑amino‑3‑(4-(2-aminoethoxy)phenyl)propanoic acid][2‑amino‑3‑(6-hydroxynaphthalen-2-yl)propanoic acid][Thp]EN[3Pal][Sar] (disulfide 2-7 (inferred); ends not checked) [SEQ ID NO: 151]: below 1 nM; [(R)‑2‑(2-(3-((5-carboxy-5-hydrazineylpentyl)amino)-3-oxopropoxy)ethoxy)‑N,N,N‑trimethylethan‑1‑aminium][Pen]NT[Trp(7-Me)]K(Ac)[Pen][2‑amino‑3‑(4-(2-aminoethoxy)phenyl)propanoic acid][2‑amino‑3‑(6-hydroxynaphthalen-2-yl)propanoic acid][Thp]EN[3Pal][Sar] (disulfide 2-7 (inferred); ends not checked) [SEQ ID NO: 145]: below 0.1 nM.
